Measurements: patent publication US20220185898A1 (Alector, published 2022)
Substitutions are numbered along the chain they refer to. No end group written: not given here. *: point of attachment. Biotin = O=C1N[C@H]2[C@H](CS[C@H]2CCCCC(=O)*)N1

B1: recombinant human Progranulin (Adipogen) (ligand, UniProt P28799 18-593, looked up)
chain: TRCPDGQFCPVACCLDPGGASYSCCRPLLDKWPTTLSRHLGGPCQVDAHCSAGHSCIFTVSGTSSCCPFPEAVACGDGHHCCPRGFHCSADGRSCFQRSGNNSVGAIQCPDSQFECPDFSTCCVMVDGSWGCCPMPQASCCEDRVHCCPHGAFCDLVHTRCITPTGTHPLAKKLPAQRTNRAVALSSSVMCPDARSRCPDGSTCCELPSGKYGCCPMPNATCCSDHLHCCPQDTVCDLIQSKCLSKENATTDLLTKLPAHTVGDVKCDMEVSCPDGYTCCRLQSGAWGCCPFTQAVCCEDHIHCCPAGFTCDTQKGTCEQGPHQVPWMEKAPAHLSLPDPQALKRDVPCDNVSSCPSSDTCCQLTSGEWGCCPIPEAVCCSDHQHCCPQGYTCVAEGQCQRGSEIVAGLEKMPARRASLSHPRDIGCDQHTSCPVGQTCCPSLGGSWACCQLPHAVCCEDRQHCCPAGYTCNVKARSCEKEVVSAQPATFLARSPHVGVKDVECGEGHFCHDNQTCCRDNRQGWACCPYRQGVCCADRRHCCPAGFRCAARGTKCLRREAPRWDAPLRDPALRQLL
modifications: biotinylated or DyLight650-labelled in some assays
notes: also called hPGRN; PGRN
B2: biotinylated Progranulin C-terminal peptide (peptide)
peptide: Biotin-TKCLRREAPRWDAPLRDPALRQLL
notes: also called hPGRN peptide
B3: S-2 (antibody, V domains shown)
VH: not shown
VL: DIQMTQSPSSLSASVGDRVTITCRASQSISSYLNWYQQKPGKAPKLLIYAASSLQSGVPSRFSGSGSGTDFTLTISSLQPEDFATYYCQQSDVSPITFGGGTKVEIK
notes: IgG; also called S-02
B4: S-14 (antibody, V domains shown)
VH: QVQLVQSGAEVKKPGASVKVSCKASGYTFTSYYMSWVRQAPGQGLEWMGIINPSGGSTSYAQKFQGRVTMTRDTSTSTVYMELSSLRSEDTAVYYCARDPSGIAAAGPASRYYYGMDVWGQGTTVTVSS
VL: B3 VL with A50G, S91H, D92Y, S94G, I96F
notes: IgG
B5: S-15 (antibody, V domains shown)
VH: B4 VH
VL: EIVMTQSPATLSVSPGERATLSCRASQSVSSNLAWYQQKPGQAPRLLIYGASTRATGIPARFSGSGSGTEFTLTISSLQSEDFAVYYCQQARLGPWTFGGGTKVEIK
notes: IgG
B6: S-22 (antibody, V domains shown)
VH: QVQLVQSGAEVKKPGSSVKVSCKASGGTFSSYAISWVRQAPGQGLEWMGGIIPIFGTASYAQKFQGRVTITADESTSTAYMELSSLRSEDTAVYYCARQGRKTGYYYYYGMDVWGQGTTVTVSS
VL: DIQMTQSPSTLSASVGDRVTITCRASQSISSWLAWYQQKPGKAPKLLIYKASSLESGVPSRFSGSGSGTEFTLTISSLQPDDFATYYCQQADGHITFGGGTKVEIK
notes: IgG
B7: recombinant mouse Progranulin (Adipogen) (ligand, UniProt P28798 18-589, looked up)
chain: TQCPDGQFCPVACCLDQGGANYSCCNPLLDTWPRITSHHLDGSCQTHGHCPAGYSCLLTVSGTSSCCPFSKGVSCGDGYHCCPQGFHCSADGKSCFQMSDNPLGAVQCPGSQFECPDSATCCIMVDGSWGCCPMPQASCCEDRVHCCPHGASCDLVHTRCVSPTGTHTLLKKFPAQKTNRAVSLPFSVVCPDAKTQCPDDSTCCELPTGKYGCCPMPNAICCSDHLHCCPQDTVCDLIQSKCLSKNYTTDLLTKLPGYPVKEVKCDMEVSCPEGYTCCRLNTGAWGCCPFAKAVCCEDHIHCCPAGFQCHTEKGTCEMGILQVPWMKKVIAPLRLPDPQILKSDTPCDDFTRCPTNNTCCKLNSGDWGCCPIPEAVCCSDNQHCCPQGFTCLAQGYCQKGDTMVAGLEKIPARQTTPLQIGDIGCDQHTSCPVGQTCCPSLKGSWACCQLPHAVCCEDRQHCCPAGYTCNVKARTCEKDVDFIQPPVLLTLGPKVGNVECGEGHFCHDNQTCCKDSAGVWACCPYLKGVCCRDGRHCCPGGFHCSARGTKCLRKKIPRWDMFLRDPVPRPLL
modifications: biotinylated
notes: also called mPGRN; Bio-mPGRN
B8: S-2-1 Fab (Fab, V domains shown)
VH: QVQLVQSGAEVKKPGASVKVSCKASGYTFGAYYMHWVRQAPGQGLEWMGWINPNSGFTRYAQKFQGRVTMTRDTSISTAYMELSRLRSDDTAVYYCARGKRSSGWYEGYGMDVWGQGTTVTVSS
VL: B3 VL
notes: Fab by papain digestion of the IgG
B9: S-15-3 Fab (Fab, V domains shown)
VH: B4 VH with Y32T, S54Y
VL: B5 VL
notes: Fab by papain digestion
B10: S-15-14 Fab (Fab, V domains shown)
VH: B4 VH with Y32Q, S54Y
VL: B5 VL
notes: Fab by papain digestion
B11: S-22-3 Fab (Fab, V domains shown)
VH: B6 VH with S30R, I54G, S59W
VL: B6 VL
notes: Fab by papain digestion
B12: S-22-7 Fab (Fab, V domains shown)
VH: B6 VH with I54G, T57R, S59N
VL: B6 VL
notes: Fab by papain digestion
B13: S-22-9 Fab (Fab, V domains shown)
VH: B6 VH with S30R, S31N, F55G, T57W, S59N
VL: B6 VL
notes: Fab by papain digestion

Tests used:
[1] = target: T1, recombinant human Sortilin, His-tagged (R&D Systems) (human, UniProt Q99523 78-755); assay: Biacore SPR, His-captured Sortilin
T1 construct: bought; whole entry named; also called His-captured SORT1

[2] = target: T2, mouse Sortilin expressed on 293 / HEK293T cells (mouse, UniProt Q6PHU5 74-825); assay: FACS, time course of binding and endocytosis of human PGRN-DyLight650 by HEK293T cells expressing mouse Sortilin
T2 construct: full-length recombinant mouse Sortilin; also called mSort; msSort

[3] = target: T1, recombinant human Sortilin, His-tagged …; assay: ELISA, biotinylated PGRN on immobilized Sortilin
[4] = target: T3, biotinylated human Sortilin monomer (human, UniProt Q99523 78-755, limits assumed, biotinylated (Sulfo-NHS-biotin)); assay: ForteBio, peptide format: human Sortilin monomer (100 nM) on biotinylated PGRN peptide on SA sensors
T3 construct: monomer cut from the Fc fusion with IdeS; used unbiotinylated in solution in some formats; also called Bt-hSort; b-H Sort
Experimental: SA sensors were soaked in PBS for 10 min prior to analysis. […] The data was prepared for analysis with ForteBio Data Analysis Software version 8.1.0.36 as follows. The data was y-axis aligned and inter-step corrected to the beginning of the Sortilin capture step and then cropped to show only the Sortilin capture and antibody interaction steps.

[5] = target: T4, human Sortilin Fc fusion protein (human, UniProt Q99523 78-755); assay: ForteBio, avid;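 also: whole IgG captured on AHQ sensors, then contacted with Sortilin Fc fusion antigen at 100 nM, followed by an off-rate phase in buffer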
T4 construct: whole entry named; also called hSort-Fc
Experimental: (§1) The affinity for the Sortilin antibodies was determined by measuring their KD by ForteBio. […] Briefly, ForteBio affinity measurements were performed by loading IgGs on-line onto AHQ sensors. Sensors were equilibrated off-line in assay buffer for 30 min and then monitored on-line for 60 seconds for baseline establishment. For avid binding measurement, sensors with loaded IgGs were exposed to 100 nM antigen (human or mouse Sortilin Fc fusion) for 3, afterwards they were transferred to assay buffer for 3 min for off-rate measurement.
(§2) The binding affinity of each anti-Sortilin antibody was determined by measuring their KD by ForteBio or MSD-SET at room temperature. […] Briefly, ForteBio affinity measurements were performed by loading IgGs on-line onto AHQ sensors. Sensors were equilibrated off-line in assay buffer for 30 min and then monitored on-line for 60 seconds for baseline establishment. Sensors with loaded IgGs were exposed to 100 nM antigen for 5 minutes, then transferred to assay buffer for 5 min for off-rate measurement. Kinetics were analyzed using the 1:1 binding model.

[6] = target: T5, mouse Sortilin Fc fusion protein (mouse; human, UniProt Q6PHU5 74-754); assay: ForteBio, avid;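 also: whole IgG captured on AHQ sensors, then contacted with Sortilin Fc fusion antigen at 100 nM, followed by an off-rate phase in buffer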
T5 construct: whole entry named; also called mSort-Fc
Experimental: as §1, §2

[7] = target: T2, mouse Sortilin expressed on 293 / …; assay: FACS, 293 cells;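 also: antibodies at 10 µg/ml bound to cells for 1 h on ice, detected with PE-labelled anti-human secondary antibody by flow cytometry, reported as mean fluorescence intensity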
Experimental: (§3) Cells were harvested, plated at 10⁵/ml in a 96 well plate, washed, and incubated in 100 μl PBS containing 10 μg/ml Mab and 2% FBS for 1 hour in ice. Cells were then washed twice and incubated in 100 μl PBS+2% FBS containing 5 μg/ml PE-conjugated anti-human secondary antibody for 30 minutes in ice. Cells were washed twice in cold PBS and data was acquired on a BD FACS Canto. Data analysis and calculation of MFI values was performed with FlowJo (TreeStar) software version 10.0.7.

[8] = target: T6, human Sortilin expressed on 293 / HEK293T cells (human, UniProt Q99523 78-830); assay: FACS, 293 cells;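 also: antibodies at 10 µg/ml bound to cells for 1 h on ice, detected with PE-labelled anti-human secondary antibody by flow cytometry, reported as mean fluorescence intensity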
T6 construct: full-length recombinant human Sortilin; also called hSort; SORT1
Experimental: as §3

[9] = target: T2, mouse Sortilin expressed on 293 / …; assay: cell binding, HEK293T, FACS
[10] = target: T6, human Sortilin expressed on 293 / …; assay: cell binding, HEK293T, FACS
[11] = target: T3, biotinylated human Sortilin monomer; assay: ForteBio, avidity, biotinylated human Sortilin on sensor
[12] = target: T7, recombinant mouse Sortilin (R&D Systems) (mouse, UniProt Q6PHU5 74-754, limits assumed); assay: ELISA, biotinylated PGRN on immobilized Sortilin
T7 construct: bought; also called mouse SORT1

[13] = target: T3, biotinylated human Sortilin monomer; assay: MSD-SET, Fab; MSD, Fab, monovalent biotinylated human Sortilin
Experimental: (§4) Antibodies (20 nM in PBS) were coated onto standard bind MSD-ECL plates overnight at 4° C. or at room temperature for 30 min. Plates were then blocked with 1% BSA for 30 min with shaking at 700 rpm, followed by three washes with wash buffer (PB SF+0.05% Tween 20). SET samples were applied and incubated on the plates for 150 s with shaking at 700 rpm followed by one wash. Antigen captured on a plate was detected with 250 ng/ml sulfotag-labeled streptavidin in PBSF by incubation on the plate for 3 min. The plates were washed three times with wash buffer and then read on the MSD Sector Imager 2400 instrument using 1× Read Buffer T with surfactant. The percent free antigen was plotted as a function of titrated antibody in Prism and fit to a quadratic equation to extract the KD. To improve throughput, liquid handling robots were used throughout MSD-SET experiments, including SET sample preparation.

[14] = target: T8, biotinylated mouse Sortilin monomer (mouse, UniProt Q6PHU5 74-754, limits assumed, biotinylated); assay: MSD-SET, Fab
T8 construct: also called Bt-msSort
Experimental: as §4

[15] = target: T3, biotinylated human Sortilin monomer; assay: ForteBio, Fab
Experimental: (§5) The affinity of the anti-Sortilin antibodies was determined by measuring their KD by ForteBio and MSD. […] Briefly, ForteBio affinity measurements were performed by loading immunoglobulins (IgGs) on-line onto AHQ sensors. Sensors were equilibrated off-line in assay buffer for 30 min and then monitored on-line for 60 seconds for baseline establishment. For avid binding measurement, sensors with loaded IgGs were exposed to 100 nM antigen (human or mouse Sortilin Fc fusion) for 3 min, afterwards they were transferred to assay buffer for 3 min for off-rate measurement. […] Monovalent binding measurements were obtained by loading human or mouse Sortilin Fc fusion antigens to AHQ sensor and followed by exposure to −100 nM Sortilin antibody Fab. […] Kinetics data were fit using a 1:1 binding model in the data analysis software provided by ForteBio.

[16] = target: T3, biotinylated human Sortilin monomer; assay: MSD-SET, Fab
Experimental: as §4

[17] = target: T8, biotinylated mouse Sortilin monomer; assay: ForteBio, Fab
Experimental: as §5

| Kd [5] | Kd [6] | MFI [7] | MFI [8] | Kd [14] | Kd [15] | Kd [16] | Kd [17] | other results | Binder |
| --- | --- | --- | --- | --- | --- | --- | --- | --- | --- |
| – | – | – | – | – | – | – | – | Kd [1]: 14.3 nM; binding result [2]: binds; Kd [3]: 14 nM | B1 |
| – | – | – | – | – | – | – | – | binding result [4]: binds | B2 |
| 0.517 nM | 1.07 nM | 22400 | 8430 | – | – | – | – | Kd [9]: 6.6 nM; Kd [10]: 1.1 nM | B3 |
| 5.74 nM | 2.74 nM | 16500 | 8010 | – | – | – | – | Kd [11]: 0.8 nM | B4 |
| 2.3 nM | 1.4 nM | 17600 | 8740 | – | – | – | – | Kd [9]: 6.4 nM; Kd [10]: 3.3 nM | B5 |
| 0.99 nM | 1.12 nM | 23200 | 8940 | – | – | – | – | Kd [9]: 5 nM; Kd [10]: 2.4 nM | B6 |
| – | – | – | – | – | – | – | – | Kd [12]: 40 nM | B7 |
| – | – | – | – | 0.73 nM | 0.614 nM | – | – | Kd [13]: 0.029 nM | B8 |
| – | – | – | – | 0.11 nM | 0.943 nM | 0.26 nM | 0.769 nM | – | B9 |
| – | – | – | – | 0.1 nM | 1.04 nM | 0.19 nM | 0.758 nM | – | B10 |
| – | – | – | – | 1.2 nM | 0.698 nM | 0.097 nM | 1.43 nM | – | B11 |
| – | – | – | – | 0.57 nM | 0.508 nM | 0.098 nM | 0.751 nM | – | B12 |
| – | – | – | – | – | 0.575 nM | 0.0048 nM | 3.29 nM | – | B13 |
